Substrate in series [1]: Nc1ncnc2c1ncn2[C@@H]1O[C@H](COP(=O)(O)OP(=O)(O)OP(=O)(O)O)[C@@H](O)[C@H]1O
Nature of the series: purified protein, by the assay type. Conditions: pH 7.8.

Substrate in series [2]: NC(=O)c1ccc[n+]([C@@H]2O[C@H](COP(=O)(O)OP(=O)(O)OC[C@H]3O[C@@H](n4cnc5c(N)ncnc54)[C@H](O)[C@@H]3O)[C@@H](O)[C@H]2O)c1
Nature of the series: purified protein, by the assay type. Conditions: pH 7.8.

B1: 6HIS-Δ38NADKc-1 (with AtCaM1/Ca^2+) (Arabidopsis thaliana) (protein)
chain: AGELLLRRRKLDQGASMGYKDVKIAPLIERKDSGRRSNLERFSHYVARQLGFEDPNEYPQLCKLANGYLLKTKGYDENVDEYLENEAERDSLYVHLLEEFDRCILTYFSFNWTQSSNLISQALSDESDQKVPKLKDFVMAATRKQRFERVTKDLKVKRVISTLVEEMRVIGSGSSEPHCTEVMSPVAHNKRSPVLLLMGGGMGAGKSTVLKDIFLESFWSEAQADAVVIEADAFKETDVIYRALSSRGHHDDMLQTAELVHQSSTDAASSLLVTALNDGRDVIMDGTLSWEPFVEQMIEMARNVHKQKYRMGEGYKVSEEGTITEKYWEEEEEETKENGKQQNLKPYRIELVGVVCDAYLAVARGIRRALMVKRAVRVKPQLNSHKRFANAFPKYCELVDNARLYCTNAVGGPPRLIAWKDGNSKLLVDPEDIDCLKRVSSLNPDAESIYELYPDPSQLSKPGSVWNDVVLVPSRPKVQKELSDAIRRIEKAQPKN
Broadly, the kcat is the maximal rate divided by the concentration of active sites. What is called kcat/Km is the turnover number divided by the Michaelis constant. For the protein B1, in series [1], the Km is 203(±30) uM, the turnover number (kcat) came to 41 ± 2 s⁻¹ and the specificity constant (kcat/Km) is 200000 M⁻¹ s⁻¹. Besides, in series [2], the Km is given as 147 (±17) uM, the kcat was determined as 42 ± 2 s⁻¹ and the specificity constant (kcat/Km) was determined as 280000 M⁻¹ s⁻¹.

The record behind these values is publication doi:10.1101/521658v1.
